The values below are quoted from earlier work in publication PMC9987997.

By Kd is commonly meant the equilibrium constant for the complex coming apart.

In data set [1] the target is Scribble PDZ1 (Homo sapiens) (UniProt Q14160). The experiment in a line: ITC. (ITC needs no label: the signal is the heat of the interaction.)
For data set [2], the target named is Scribble PDZ4 (Homo sapiens) (UniProt Q14160). Briefly: ITC.

For the substance “NS1 (ESEV PBM) PBM (from UniProt Q8QPI8)”, the Kd is 21.4 µM in data set [1] and 12.2 µM in data set [2].
